Results on 18 sequences are retold here after the supplement of paper PMC12764529.

± gives the half width of the 95% confidence interval.

Series [1] is described as follows: folding stability dG unfold (combined trypsin and chymotrypsin); higher = more stable. In short, it runs like this:
(§1)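 Digests were run with trypsin and chymotrypsin at 11 concentrations in threefold dilutions, plus a no-protease condition, on designed mini-proteins in a PA-tagged cDNA display construct. The mini-proteins were under 80 residues, had no cysteine, and were kept only when AlphaFold2 dimer inter-PAE was above 15. After sequencing, Bayesian fitting of the counts gave K50, from which unfolding free energy was derived against a sequence-predicted unfolded-state K50 and a shared folded-state K50, per protease or combined.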

Series [2] can be described thus: folding stability dG unfold from chymotrypsin proteolysis; higher = more stable. In short, it runs like this:
as §1

Series [3] can be described thus: folding stability dG unfold from trypsin proteolysis; higher = more stable. In short, it runs like this: as §1

As to “SAGGSADPGKPIQIAIMIHIDPEPGRIEIPIYIMDDNRVRPVSIEFTPAGTLKIEVGNKEIEIPIKSAGGSA [r15_507_TrROS]”, the “folding stability dG unfold” value in series [1] turned out to be 2.24 ± 0.16 kcal/mol; in series [2], 2.01 ± 0.042 kcal/mol; in series [3] it was 2.46 ± 0.17 kcal/mol.

Turning to “SAGGSADRVTVTVTVRVRDPATGEWREVTETVTVPAPLTLEITLPPGWRLRLTLEDGELRLEVEPESAGGSA [r2_109_TrROS_Hall]”, the “folding stability dG unfold” value in series [1] was found to be 3.93 ± 0.063 kcal/mol; in series [2] it was 4.26 ± 0.051 kcal/mol; in series [3] it was 3.1 ± 0.096 kcal/mol.

Take “SAGGSADTITIFFPGMPPEFAKEILEAILYEQGWKPKSVSTERHPEKGMHTIEVRFPNGRKITIMFSAGGSA [r15_958_TrROS]”: the “folding stability dG unfold” value in series [1] was 2.75 ± 0.052 kcal/mol; in series [2] it was 3.1 ± 0.016 kcal/mol; in series [3], 2.18 ± 0.06 kcal/mol.

Regarding “SAGGSADVKITEVHNPHRNPNGRPFFMVRIKWPDNGTHTIMMNPNDLDDLLAQLPPNWKIDEIHPISAGGSA [r15_339_TrROS]”, the results for the “folding stability dG unfold” value in series [1], in series [2] and in series [3] were 1.57 ± 0.049 kcal/mol, 1.68 ± 0.055 kcal/mol and 1.39 ± 0.025 kcal/mol, respectively.

As to “SAGGSAEEELLKAIKEALEKAKEGETVELEITLEDGSTLRITFDAENGKITVTLPNGEKLELTIEPSAGGSA [r15_977_TrROS_Hall]”, the “folding stability dG unfold” value in series [1] is 4.23 ± 0.16 kcal/mol; in series [2], 4.37 ± 0.18 kcal/mol; in series [3] it was 3.18 ± 0.19 kcal/mol.

In the case of “SAGGSAEEIARKLAEELAEEGEEVEVEVVEVEVEKVDGKEKVIRIRVKVKLPNGEELELELEIKLDELSAGG [r13_215_TrROS_Hall]”, the “folding stability dG unfold” value in series [1] stood at 2.43 ± 0.24 kcal/mol; in series [2] it was 2.18 ± 0.28 kcal/mol; in series [3], 2.38 ± 0.16 kcal/mol.

Take “SAGGSAEELLKKLKIVEVKEVDGKLYIEIEVDEPGLTVEEIKEILKELNLDVPIEVKEVVVVEEKESAGGSA [r15_599_TrROS_Hall]”: the “folding stability dG unfold” value in series [1] worked out at 1.98 ± 0.11 kcal/mol; in series [2], 2.16 ± 0.062 kcal/mol; in series [3], 1.69 ± 0.14 kcal/mol.

In the case of “SAGGSAEIEIVIVVPEGASEEQVKALAKELKEELEKLLKVKDKDGKEKEVKIKKIKITVIVLPKEESAGGSA [r15_717_TrROS_Hall]”, the results for the “folding stability dG unfold” value in series [1], in series [2] and in series [3] were 2.42 ± 0.2 kcal/mol, 2.56 ± 0.064 kcal/mol and 2.37 ± 0.087 kcal/mol, respectively.

As for “SAGGSAEKEVYLVPFESEEKREKLREALLAEPGIEEVKETEDGVLLVTVPKGLSDKVEKAIKEAGISAGGSA [r15_834_TrMRF]”, the “folding stability dG unfold” value in series [1] is 1.17 ± 0.086 kcal/mol; in series [2] it was 1.08 ± 0.025 kcal/mol; in series [3] it was 1.21 ± 0.047 kcal/mol.

For the sequence “SAGGSAEKVEIKVTYDKETGKVTVEIRVEVDLSEEQLKKLKELAEELGLEVEVTVEVRYEPPPPKESAGGSA [r15_542_TrROS_Hall]”, the “folding stability dG unfold” value in series [1] was determined as 2.27 ± 0.49 kcal/mol; in series [2], 2.18 ± 0.31 kcal/mol; in series [3], 2.99 ± 0.38 kcal/mol.

Take “SAGGSAENDRFIVRVTIQMRNPGDGEKRTHTIPWFEFEPGKPAEEFAIDIADDFGIDNIDVEVYPLSAGGSA [r15_540_TrROS]”: the “folding stability dG unfold” value was 1.57 ± 0.052 kcal/mol in series [1], 1.68 ± 0.026 kcal/mol in series [2] and 1.35 ± 0.023 kcal/mol in series [3].

For the sequence “SAGGSAEPLVYELPDGTVVLLPPTTAVVYHRLSDGRVVVVGLEVDDPPDPEKALARARAVVEALPDSAGGSA [r15_748_TrMRF]”, the results for the “folding stability dG unfold” value in series [1], in series [2] and in series [3] were 1.26 ± 0.13 kcal/mol, 1.6 ± 0.11 kcal/mol and 0.067 ± 0.25 kcal/mol, respectively.

In the case of “SAGGSAETIETVSSTFPVFSEDDKPVAVVKTYIFKFEDGELVLTEVFTPDGKPVAVKVASLDEFLNSAGGSA [r15_755_TrMRF]”, the “folding stability dG unfold” value was determined as 1.56 ± 0.071 kcal/mol in series [1], 1.7 ± 0.045 kcal/mol in series [2] and 1.27 ± 0.025 kcal/mol in series [3].

For the sequence “SAGGSAETLTITLTVKPGETVTIKALFKAEDGSVYAVTATFTAEDEGTVTITVTRLPPGVKDLADLSAGGSA [r15_909_TrROS_Hall]”, the “folding stability dG unfold” value amounted to 4.4 ± 0.16 kcal/mol in series [1], 4.71 ± 0.1 kcal/mol in series [2] and 2.83 ± 0.099 kcal/mol in series [3].

“SAGGSAEVELVKVEVNPDGPYVKATFRIPGGGDVAVLVFDPDRPNTARLIVRPPNNEPIAEIELPLSAGGSA [r15_974_TrMRF]”: the “folding stability dG unfold” value was determined as 1.65 ± 0.2 kcal/mol in series [1], 1.83 ± 0.28 kcal/mol in series [2] and 1.52 ± 0.046 kcal/mol in series [3].

As to “SAGGSAEWKEKALKMGAKEVKEDPANGYLYVTFPGPGRTIVIWKKEEDGTVTKVKTVSPSVKVEYKSAGGSA [r15_247_JUSTAS]”, the “folding stability dG unfold” value in series [1] is 0.491 ± 0.18 kcal/mol; in series [2] it was 0.817 ± 0.27 kcal/mol; in series [3] it was -0.292 ± 0.41 kcal/mol.

Take “SAGGSAGDKVVTVTATFTTTDPNGNEITIIAPITFLNGEGTAVIDAKAFNPTGELIAEATITVPIGSAGGSA [r15_967_TrMRF]”: the “folding stability dG unfold” value in series [1] was determined as 2.07 ± 0.087 kcal/mol; in series [2] it was 2.34 ± 0.028 kcal/mol; in series [3], 1.69 ± 0.057 kcal/mol.

Consider “SAGGSAGGAERIKNLLEDYGFELKDVEMDEPGSTKIHITPDNPSLRKDIKDKLPPGNVDSITDTSAGGSAGG [r6_84_TrROS]”, for which the “folding stability dG unfold” value in series [1] is 0.882 ± 0.26 kcal/mol; in series [2], 1.33 ± 0.12 kcal/mol; in series [3] it was -0.0811 ± 0.14 kcal/mol.
